What was measured:
[1] = biological target: T1, DCL1-AB (both dsRBDs) (Arabidopsis thaliana) (UniProt Q9SP32); test: fluorescence anisotropy; conditions: FA: 10 mM phosphate pH 7.0, 50 nM labeled nucleic acid, temperature not stated; CD: 10 mM phosphate pH 7; NMR complex: 20 mM phosphate pH 7.0, 5 mM TCEP
T1 sequence: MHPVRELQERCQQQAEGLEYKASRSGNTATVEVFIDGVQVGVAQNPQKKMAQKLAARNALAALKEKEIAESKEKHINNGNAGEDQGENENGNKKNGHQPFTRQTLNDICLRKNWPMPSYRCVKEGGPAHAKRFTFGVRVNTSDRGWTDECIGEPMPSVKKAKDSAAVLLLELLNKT

[2] = biological target: T2, DCL1-A (first dsRBD) (Arabidopsis thaliana) (UniProt Q9SP32); test: fluorescence anisotropy; conditions: FA: 10 mM phosphate pH 7.0, 50 nM labeled nucleic acid, temperature not stated; CD: 10 mM phosphate pH 7; NMR complex: 20 mM phosphate pH 7.0, 5 mM TCEP
T2 sequence: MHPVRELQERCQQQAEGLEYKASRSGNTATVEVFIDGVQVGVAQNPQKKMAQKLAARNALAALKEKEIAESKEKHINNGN

| Substance | Kd [1] | Kd [2] |
| --- | --- | --- |
| dsDNA | 680 nM | 860 nM |
| miR172a stem-loop (miRNA/miRNA* region) | 67 nM | 723 nM |
